Reference: publication PMC10397247
Read-outs that look alike come from different tables or passages of the source.

T1: 4H536-AA
T1 chain: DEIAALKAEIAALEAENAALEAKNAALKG

T2: 4H629-AA
T2 chain: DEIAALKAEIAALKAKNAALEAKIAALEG

T3: 4H930-AA
T3 chain: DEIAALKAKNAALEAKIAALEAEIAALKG

T4: 4H3381-AA
T4 chain: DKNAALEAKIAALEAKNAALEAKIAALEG

T5: 4H3590-AA
T5 chain: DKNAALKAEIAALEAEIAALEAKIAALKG

T6: 4H570-AA
T6 chain: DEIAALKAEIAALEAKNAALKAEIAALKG

T7: 4H3165-AA
T7 chain: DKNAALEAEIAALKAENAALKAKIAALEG

T8: 4H458-AA
T8 chain: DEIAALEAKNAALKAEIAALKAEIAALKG

T9: 4H3753-AA
T9 chain: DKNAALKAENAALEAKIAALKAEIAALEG

T10: 4H3697-AA
T10 chain: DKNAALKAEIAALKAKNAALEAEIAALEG

T11: 4H909-AA
T11 chain: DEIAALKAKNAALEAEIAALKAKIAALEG

T12: 4H745-AA
T12 chain: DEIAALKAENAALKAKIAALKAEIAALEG

T13: 4H3865-AA
T13 chain: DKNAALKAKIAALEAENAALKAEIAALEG

T14: 4H850-AA
T14 chain: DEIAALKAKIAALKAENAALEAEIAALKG

T15: 4H710-AA
T15 chain: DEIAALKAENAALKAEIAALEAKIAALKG

T16: 4H891-AA
T16 chain: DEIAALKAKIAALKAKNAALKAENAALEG

T17: 4H3410-AA
T17 chain: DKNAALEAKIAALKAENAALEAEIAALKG

T18: 4H3395-AA
T18 chain: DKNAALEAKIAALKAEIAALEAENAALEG

T19: 4H94-AA
T19 chain: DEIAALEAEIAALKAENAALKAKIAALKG

T20: 4H485-AA
T20 chain: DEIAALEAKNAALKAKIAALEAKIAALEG

T21: 4H797-AA
T21 chain: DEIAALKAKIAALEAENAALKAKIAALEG

T22: 4H967-bN
T22 chain: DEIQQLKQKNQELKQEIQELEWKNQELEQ

T23: 4H908-bN
T23 chain: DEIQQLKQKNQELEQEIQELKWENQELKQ

T24: 4H918-bN
T24 chain: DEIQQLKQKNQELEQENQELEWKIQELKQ

T25: 4H953-bN
T25 chain: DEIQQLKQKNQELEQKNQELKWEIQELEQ

T26: 4H446-AA
T26 chain: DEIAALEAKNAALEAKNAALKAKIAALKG

T27: 4H432-AA
T27 chain: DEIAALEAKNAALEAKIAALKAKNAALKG

T28: 4H63-AA
T28 chain: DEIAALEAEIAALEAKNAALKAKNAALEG

T29: 4H883-bN
T29 chain: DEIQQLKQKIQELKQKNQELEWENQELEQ


What was measured:
[1] = biological target: T1, 4H536-AA; test: two-hybrid library CCmax; conditions: mean of both orientations;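 note: natural log of median RNA to DNA barcode read ratio; higher means stronger binding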
[2] = biological target: T2, 4H629-AA; test: two-hybrid library CCmax; conditions: mean of both orientations;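 note: natural log of median RNA to DNA barcode read ratio; higher means stronger binding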
[3] = biological target: T3, 4H930-AA; test: two-hybrid library CCmax; conditions: mean of both orientations;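 note: natural log of median RNA to DNA barcode read ratio; higher means stronger binding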
[4] = biological target: T4, 4H3381-AA; test: two-hybrid library CCmax; conditions: mean of both orientations;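 note: natural log of median RNA to DNA barcode read ratio; higher means stronger binding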
[5] = biological target: T5, 4H3590-AA; test: two-hybrid library CCmax; conditions: mean of both orientations;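 note: natural log of median RNA to DNA barcode read ratio; higher means stronger binding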
[6] = biological target: T6, 4H570-AA; test: two-hybrid library CCmax; conditions: mean of both orientations;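 note: natural log of median RNA to DNA barcode read ratio; higher means stronger binding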
[7] = biological target: T7, 4H3165-AA; test: two-hybrid library CCmax
[8] = biological target: T8, 4H458-AA; test: two-hybrid library CCmax; conditions: mean of both orientations
[9] = biological target: T9, 4H3753-AA; test: two-hybrid library CCmax; conditions: mean of both orientations
[10] = biological target: T10, 4H3697-AA; test: two-hybrid library CCmax; conditions: mean of both orientations
[11] = biological target: T11, 4H909-AA; test: two-hybrid library CCmax; conditions: mean of both orientations
[12] = biological target: T12, 4H745-AA; test: two-hybrid library CCmax; conditions: mean of both orientations
[13] = biological target: T13, 4H3865-AA; test: two-hybrid library CCmax; conditions: mean of both orientations
[14] = biological target: T14, 4H850-AA; test: two-hybrid library CCmax; conditions: mean of both orientations
[15] = biological target: T15, 4H710-AA; test: two-hybrid library CCmax; conditions: mean of both orientations
[16] = biological target: T16, 4H891-AA; test: two-hybrid library CCmax; conditions: mean of both orientations
[17] = biological target: T17, 4H3410-AA; test: two-hybrid library CCmax; conditions: mean of both orientations
[18] = biological target: T18, 4H3395-AA; test: two-hybrid library CCmax
[19] = biological target: T19, 4H94-AA; test: two-hybrid library CCmax; conditions: mean of both orientations
[20] = biological target: T20, 4H485-AA; test: two-hybrid library CCmax; conditions: mean of both orientations
[21] = biological target: T21, 4H797-AA; test: two-hybrid library CCmax; conditions: mean of both orientations
[22] = biological target: T22, 4H967-bN; test: two-hybrid library CCNG1
[23] = biological target: T23, 4H908-bN; test: two-hybrid library CCNG1
[24] = biological target: T24, 4H918-bN; test: two-hybrid library CCNG1
[25] = biological target: T25, 4H953-bN; test: two-hybrid library CCNG1
[26] = biological target: T26, 4H446-AA; test: two-hybrid library CCmax; conditions: mean of both orientations
[27] = biological target: T27, 4H432-AA; test: two-hybrid library CCmax
[28] = biological target: T28, 4H63-AA; test: two-hybrid library CCmax; conditions: mean of both orientations
[29] = biological target: T29, 4H883-bN; test: two-hybrid library CCNG1

| interaction score [1] | interaction score [2] | interaction score [3] | interaction score [5] | interaction score [6] | interaction score [8] | interaction score [9] | interaction score [10] | interaction score [11] | interaction score [12] | interaction score [13] | interaction score [14] | interaction score [15] | interaction score [16] | interaction score [17] | interaction score [19] | interaction score [20] | interaction score [21] | interaction score [22] | interaction score [23] | Binder | other results |
| --- | --- | --- | --- | --- | --- | --- | --- | --- | --- | --- | --- | --- | --- | --- | --- | --- | --- | --- | --- | --- | --- |
| -1.27 | -0.975 | -1.79 | -0.944 | -1.57 | -1.24 | -1.55 | -0.699 | -1.43 | -0.851 | -0.353 | -0.685 | -1.07 | -1.63 | -0.394 | 0.996 | -1.05 | -0.547 |  |  | DKNAALEAEIAALKAENAALKAKIAALEG [4H3165-AA] | interaction score [4]: -1.72; interaction score [7]: 1.88; interaction score ([18]; mean of both orientations): -1.37 |
|  |  |  |  |  |  |  |  |  |  |  |  |  |  |  |  |  |  | -0.23 | -0.618 | DEIQQLKQKNQELEQEIQELKWENQELKQ [4H908-bN] | interaction score [24]: -0.988; interaction score [25]: -0.77 |
|  |  |  |  |  |  |  |  |  |  |  |  |  |  |  |  |  |  |  |  | DEIAALEAKNAALEAKIAALKAKNAALKG [4H432-AA] | interaction score [26]: -1.7; interaction score [27]: -1.51; interaction score [28]: -1.92 |
|  |  |  |  |  |  |  |  |  |  |  |  |  |  |  |  |  |  | -0.861 | -1.19 | DEIQQLKQKIQELKQKNQELEWENQELEQ [4H883-bN] | interaction score [29]: -1.15; interaction score [24]: -0.986; interaction score [25]: -1.82 |
| -1.14 | -1.64 | -1.33 | 0.738 | -0.846 | -1.44 | -0.825 | -1.79 | -1.83 | -1.46 | -1.79 | -1.34 | -1.32 | 0.496 | -1.06 | -0.52 | -1.67 | -1.43 |  |  | DKNAALEAKIAALKAEIAALEAENAALEG [4H3395-AA] | interaction score [18]: 0.0829 |
